For 1 molecule, Kd results are on record in PMC9177983, “Mechanism of transcription modulation by the transcription-repair coupling factor” (Nucleic Acids Research, 2021).

The target of this experiment is reconstituted elongation complex (EC): His-tagged E. coli RNAP core complex on template DNA, non-template DNA … (E. coli, Core RNAP assembled with biotinylated 49-mer template/non-template DNA and RNA primer (nucleic acid sequences in the supplement). The text gives only 'RNAP core complex' from pIA900; alpha2-beta-beta'). Description: SPR; BIAcore T200, SA chip; reconstituted EC on biotinylated 49-mer immobilised (550 RU after 1 M KCl wash); Mfd 0-640 nM flowed in SPR buffer (30 mM Tris/HCl pH 7.6, 40 mM KCl, 5 mM MgCl2, 0.005% P20, 0.25 mM EDTA, 0.5 mM DTT) with 0.5 mM ATPɣS; 20°C; 1:1 steady state affinity fit. Particulars: both partners purified. On the technique in general: SPR reads the build-up and loss of mass on a sensor chip optically.
Target sequence (A1AGI6 whole entry, chain 1 of 4): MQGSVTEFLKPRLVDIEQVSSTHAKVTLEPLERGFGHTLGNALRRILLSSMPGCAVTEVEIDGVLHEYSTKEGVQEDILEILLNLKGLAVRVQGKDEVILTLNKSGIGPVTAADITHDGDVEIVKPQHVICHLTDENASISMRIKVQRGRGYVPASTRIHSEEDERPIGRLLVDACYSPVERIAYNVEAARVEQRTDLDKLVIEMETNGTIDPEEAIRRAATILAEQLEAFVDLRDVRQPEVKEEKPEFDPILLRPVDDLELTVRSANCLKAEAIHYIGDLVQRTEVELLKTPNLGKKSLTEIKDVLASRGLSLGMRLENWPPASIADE
Target sequence (A1AIF9 whole entry, chain 2 of 4, further chain): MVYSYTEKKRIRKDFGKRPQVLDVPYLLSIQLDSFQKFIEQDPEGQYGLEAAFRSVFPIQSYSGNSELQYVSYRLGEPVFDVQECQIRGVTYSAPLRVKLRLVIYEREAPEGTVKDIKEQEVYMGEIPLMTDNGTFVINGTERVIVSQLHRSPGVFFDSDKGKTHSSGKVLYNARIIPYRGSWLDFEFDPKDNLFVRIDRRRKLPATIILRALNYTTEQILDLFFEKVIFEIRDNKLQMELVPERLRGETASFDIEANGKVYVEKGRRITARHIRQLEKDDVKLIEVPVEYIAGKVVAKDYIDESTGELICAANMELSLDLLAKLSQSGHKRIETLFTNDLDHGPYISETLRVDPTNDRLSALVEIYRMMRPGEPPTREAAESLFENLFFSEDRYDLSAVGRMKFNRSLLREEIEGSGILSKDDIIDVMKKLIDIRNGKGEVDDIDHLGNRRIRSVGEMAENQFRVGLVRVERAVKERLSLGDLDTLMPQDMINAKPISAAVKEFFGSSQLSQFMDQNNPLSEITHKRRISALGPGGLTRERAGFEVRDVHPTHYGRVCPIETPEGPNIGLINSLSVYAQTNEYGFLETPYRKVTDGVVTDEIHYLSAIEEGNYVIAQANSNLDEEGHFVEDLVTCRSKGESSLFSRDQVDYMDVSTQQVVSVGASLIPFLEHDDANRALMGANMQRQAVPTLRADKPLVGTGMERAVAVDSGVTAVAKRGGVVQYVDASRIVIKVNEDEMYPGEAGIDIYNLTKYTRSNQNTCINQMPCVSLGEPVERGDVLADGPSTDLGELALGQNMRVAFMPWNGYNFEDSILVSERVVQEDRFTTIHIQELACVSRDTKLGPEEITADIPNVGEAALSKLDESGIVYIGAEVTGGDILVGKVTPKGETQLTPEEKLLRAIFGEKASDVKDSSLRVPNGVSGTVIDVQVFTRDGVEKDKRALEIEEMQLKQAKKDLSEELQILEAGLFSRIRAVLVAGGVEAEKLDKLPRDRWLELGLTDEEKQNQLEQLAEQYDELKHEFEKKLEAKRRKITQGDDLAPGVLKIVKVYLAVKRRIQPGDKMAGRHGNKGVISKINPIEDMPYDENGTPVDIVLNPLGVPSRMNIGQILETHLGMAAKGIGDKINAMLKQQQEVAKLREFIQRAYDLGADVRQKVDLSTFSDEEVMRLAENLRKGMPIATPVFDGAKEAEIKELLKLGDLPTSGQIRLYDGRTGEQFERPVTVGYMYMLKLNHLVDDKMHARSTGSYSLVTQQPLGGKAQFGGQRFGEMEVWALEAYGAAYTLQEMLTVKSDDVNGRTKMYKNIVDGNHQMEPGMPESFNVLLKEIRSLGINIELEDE
Target sequence (A7ZUK2 whole entry, chain 3 of 4, further chain): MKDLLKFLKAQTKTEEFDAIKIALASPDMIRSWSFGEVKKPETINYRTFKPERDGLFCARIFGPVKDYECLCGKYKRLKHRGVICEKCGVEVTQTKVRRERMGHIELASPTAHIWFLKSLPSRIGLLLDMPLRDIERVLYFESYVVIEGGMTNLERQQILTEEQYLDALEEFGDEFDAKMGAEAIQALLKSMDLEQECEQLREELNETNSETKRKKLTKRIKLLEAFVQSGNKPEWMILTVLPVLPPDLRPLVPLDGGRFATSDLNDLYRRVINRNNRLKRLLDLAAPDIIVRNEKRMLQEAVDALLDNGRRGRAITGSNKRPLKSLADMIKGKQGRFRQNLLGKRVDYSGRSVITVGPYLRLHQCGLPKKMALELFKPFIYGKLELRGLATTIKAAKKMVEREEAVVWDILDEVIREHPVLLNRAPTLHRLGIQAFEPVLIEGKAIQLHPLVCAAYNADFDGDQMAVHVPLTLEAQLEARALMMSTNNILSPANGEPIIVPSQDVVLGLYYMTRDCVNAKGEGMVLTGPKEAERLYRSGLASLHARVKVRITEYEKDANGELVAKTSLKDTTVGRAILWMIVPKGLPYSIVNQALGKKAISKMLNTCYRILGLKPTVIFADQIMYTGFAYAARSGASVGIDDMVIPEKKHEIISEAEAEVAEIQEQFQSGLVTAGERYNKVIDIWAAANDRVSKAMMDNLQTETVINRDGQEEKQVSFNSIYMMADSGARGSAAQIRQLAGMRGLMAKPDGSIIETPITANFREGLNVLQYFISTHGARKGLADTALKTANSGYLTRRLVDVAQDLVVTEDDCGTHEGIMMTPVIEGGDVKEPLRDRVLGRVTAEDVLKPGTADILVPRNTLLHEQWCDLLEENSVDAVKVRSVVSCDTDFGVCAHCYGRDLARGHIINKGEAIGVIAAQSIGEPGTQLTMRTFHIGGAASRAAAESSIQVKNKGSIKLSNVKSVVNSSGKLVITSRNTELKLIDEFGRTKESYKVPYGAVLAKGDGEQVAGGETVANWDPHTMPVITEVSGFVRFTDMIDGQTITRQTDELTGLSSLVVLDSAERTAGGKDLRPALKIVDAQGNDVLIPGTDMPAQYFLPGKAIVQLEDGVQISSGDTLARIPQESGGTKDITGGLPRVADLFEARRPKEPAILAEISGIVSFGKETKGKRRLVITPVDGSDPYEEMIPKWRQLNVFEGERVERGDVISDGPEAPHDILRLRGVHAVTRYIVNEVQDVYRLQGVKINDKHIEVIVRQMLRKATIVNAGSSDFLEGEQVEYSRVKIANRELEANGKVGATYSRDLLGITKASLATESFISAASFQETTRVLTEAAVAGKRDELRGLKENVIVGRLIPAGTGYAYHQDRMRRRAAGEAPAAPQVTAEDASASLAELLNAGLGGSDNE
Target sequence (A1AHI0 2-91, chain 4 of 4, further chain): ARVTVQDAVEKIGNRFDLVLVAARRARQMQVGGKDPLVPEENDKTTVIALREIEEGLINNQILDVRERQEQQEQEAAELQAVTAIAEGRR

B1: Mfd, the bacterial transcription-repair coupling factor (wild type) (natural protein, E. coli, UniProt P30958 1-1148, looked up)
chain: MPEQYRYTLPVKAGEQRLLGELTGAACATLVAEIAERHAGPVVLIAPDMQNALRLHDEISQFTDQMVMNLADWETLPYDSFSPHQDIISSRLSTLYQLPTMQRGVLIVPVNTLMQRVCPHSFLHGHALVMKKGQRLSRDALRTQLDSAGYRHVDQVMEHGEYATRGALLDLFPMGSELPYRLDFFDDEIDSLRVFDVDSQRTLEEVEAINLLPAHEFPTDKAAIELFRSQWRDTFEVKRDPEHIYQQVSKGTLPAGIEYWQPLFFSEPLPPLFSYFPANTLLVNTGDLETSAERFQADTLARFENRGVDPMRPLLPPQSLWLRVDELFSELKNWPRVQLKTEHLPTKAANANLGFQKLPDLAVQAQQKAPLDALRKFLETFDGPVVFSVESEGRREALGELLARIKIAPQRIMRLDEASDRGRYLMIGAAEHGFVDTVRNLALICESDLLGERVARRRQDSRRTINPDTLIRNLAELHIGQPVVHLEHGVGRYAGMTTLEAGGITGEYLMLTYANDAKLYVPVSSLHLISRYAGGAEENAPLHKLGGDAWSRARQKAAEKVRDVAAELLDIYAQRAAKEGFAFKHDREQYQLFCDSFPFETTPDQAQAINAVLSDMCQPLAMDRLVCGDVGFGKTEVAMRAAFLAVDNHKQVAVLVPTTLLAQQHYDNFRDRFANWPVRIEMISRFRSAKEQTQILAEVAEGKIDILIGTHKLLQSDVKFKDLGLLIVDEEHRFGVRHKERIKAMRANVDILTLTATPIPRTLNMAMSGMRDLSIIATPPARRLAVKTFVREYDSMVVREAILREILRGGQVYYLYNDVENIQKAAERLAELVPEARIAIGHGQMRERELERVMNDFHHQRFNVLVCTTIIETGIDIPTANTIIIERADHFGLAQLHQLRGRVGRSHHQAYAWLLTPHPKAMTTDAQKRLEAIASLEDLGAGFALATHDLEIRGAGELLGEEQSGSMETIGFSLYMELLENAVDALKAGREPSLEDLTSQQTEVELRMPSLLPDDFIPDVNTRLSFYKRIASAKTENELEEIKVELIDRFGLLPDPARTLLDIARLRQQAQKLGIRKLEGNEKGGVIEFAEKNHVNPAWLIGLLQKQPQHYRLDGPTRLKFIQDLSERKTRIEWVRQFMRELEENAIA
notes: Mfd (transcription-repair coupling factor), E. coli; mfd gene without ypet inserted in vector pSH1017, plasmid pHG4137; called full-length Mfd in the cryo-EM section; No tag is stated; purified by conventional chromatography; In the SPR it was flowed with 0.5 mM ATPɣS; also called TRCF; wildtype Mfd; source: E. coli BL21(λDE3)recA, purified (ammonium sulfate, DEAE, heparin Sepharose)
With B1, binding was put at a Kd of 0.127 ± 0.006 µM.
